Experimental data reported in the Human Domainome abundance scans (Beltran et al. 2025).
± gives the uncertainty stated by the source.

Assay: abundance fitness (aPCA) (normalised: wild type 0, dead -1); higher = more abundant; growth selection in yeast, the domain comes from the species named
Conditions: Homo sapiens

Substance | abundance fitness
Transcriptional activator Myb I169H, P10242 | -0.799 ± 0.22
Transcriptional activator Myb I169K, P10242 | -1.05 ± 0.15
Transcriptional activator Myb I169L, P10242 | -0.427 ± 0.086
Transcriptional activator Myb I169M, P10242 | -0.18 ± 0.093
Transcriptional activator Myb I169N, P10242 | -0.91 ± 0.14
Transcriptional activator Myb I169P, P10242 | -0.734 ± 0.12
Transcriptional activator Myb I169Q, P10242 | -0.677 ± 0.16
Transcriptional activator Myb I169R, P10242 | -0.784 ± 0.071
Transcriptional activator Myb I169S, P10242 | -0.642 ± 0.076
Transcriptional activator Myb I169T, P10242 | -0.567 ± 0.11
Transcriptional activator Myb I169V, P10242 | -0.343 ± 0.094
Transcriptional activator Myb I169W, P10242 | -1.08 ± 0.18
Transcriptional activator Myb I169Y, P10242 | -0.147 ± 0.097
Transcriptional activator Myb I181A, P10242 | -0.569 ± 0.084
Transcriptional activator Myb I181D, P10242 | -1 ± 0.17
Transcriptional activator Myb I181E, P10242 | -0.64 ± 0.11
Transcriptional activator Myb I181F, P10242 | -1.16 ± 0.38
Transcriptional activator Myb I181G, P10242 | -1.01 ± 0.07
Transcriptional activator Myb I181H, P10242 | -1.17 ± 0.25
Transcriptional activator Myb I181K, P10242 | -1.34 ± 0.35
Transcriptional activator Myb I181L, P10242 | -0.365 ± 0.094
Transcriptional activator Myb I181N, P10242 | -0.658 ± 0.35
Transcriptional activator Myb I181P, P10242 | -0.881 ± 0.25
Transcriptional activator Myb I181Q, P10242 | -0.756 ± 0.13
Transcriptional activator Myb I181R, P10242 | -0.933 ± 0.081
Transcriptional activator Myb I181S, P10242 | -0.694 ± 0.086

Substance | abundance fitness
Transcriptional activator Myb I181T, P10242 | -0.278 ± 0.094
Transcriptional activator Myb I181V, P10242 | -0.036 ± 0.07
Transcriptional activator Myb I181W, P10242 | -1.26 ± 0.2
Transcriptional activator Myb K143A, P10242 | 0.049 ± 0.15
Transcriptional activator Myb K143D, P10242 | -0.192 ± 0.19
Transcriptional activator Myb K143E, P10242 | -0.144 ± 0.17
Transcriptional activator Myb K143F, P10242 | -0.235 ± 0.18
Transcriptional activator Myb K143G, P10242 | -0.06 ± 0.059
Transcriptional activator Myb K143I, P10242 | -0.233 ± 0.14
Transcriptional activator Myb K143L, P10242 | -0.221 ± 0.16
Transcriptional activator Myb K143M, P10242 | -0.031 ± 0.16
Transcriptional activator Myb K143P, P10242 | -0.406 ± 0.49
Transcriptional activator Myb K143Q, P10242 | -0.961 ± 0.36
Transcriptional activator Myb K143R, P10242 | -0.228 ± 0.12
Transcriptional activator Myb K143S, P10242 | -0.245 ± 0.11
Transcriptional activator Myb K143T, P10242 | -0.118 ± 0.11
Transcriptional activator Myb K143V, P10242 | -0.13 ± 0.087
Transcriptional activator Myb K143W, P10242 | -0.535 ± 0.076
Transcriptional activator Myb K143Y, P10242 | -0.201 ± 0.16
Transcriptional activator Myb K144A, P10242 | -0.202 ± 0.099
Transcriptional activator Myb K144C, P10242 | -0.095 ± 0.12
Transcriptional activator Myb K144D, P10242 | 0.06 ± 0.14
Transcriptional activator Myb K144E, P10242 | -0.114 ± 0.14
Transcriptional activator Myb K144F, P10242 | -0.285 ± 0.16
Transcriptional activator Myb K144G, P10242 | -0.042 ± 0.059
Transcriptional activator Myb K144H, P10242 | -0.232 ± 0.12

Substance | abundance fitness
Transcriptional activator Myb K144I, P10242 | -0.206 ± 0.22
Transcriptional activator Myb K144L, P10242 | -0.101 ± 0.084
Transcriptional activator Myb K144M, P10242 | 0.028 ± 0.1
Transcriptional activator Myb K144N, P10242 | 0.073 ± 0.11
Transcriptional activator Myb K144P, P10242 | -0.269 ± 0.11
Transcriptional activator Myb K144Q, P10242 | -0.015 ± 0.1
Transcriptional activator Myb K144R, P10242 | -0.078 ± 0.072
Transcriptional activator Myb K144S, P10242 | 0.067 ± 0.085
Transcriptional activator Myb K144T, P10242 | 0.101 ± 0.086
Transcriptional activator Myb K144V, P10242 | -0.042 ± 0.085
Transcriptional activator Myb K144W, P10242 | -0.201 ± 0.089
Transcriptional activator Myb K144Y, P10242 | 0.08 ± 0.16
Transcriptional activator Myb K171A, P10242 | -0.017 ± 0.093
Transcriptional activator Myb K171C, P10242 | -0.238 ± 0.12
Transcriptional activator Myb K171D, P10242 | -0.234 ± 0.14
Transcriptional activator Myb K171E, P10242 | -0.017 ± 0.064
Transcriptional activator Myb K171F, P10242 | -0.638 ± 0.22
Transcriptional activator Myb K171G, P10242 | -0.336 ± 0.061
Transcriptional activator Myb K171H, P10242 | -0.207 ± 0.28
Transcriptional activator Myb K171I, P10242 | -0.141 ± 0.12
Transcriptional activator Myb K171M, P10242 | 0 ± 0.08
Transcriptional activator Myb K171P, P10242 | -0.354 ± 0.14
Transcriptional activator Myb K171Q, P10242 | -0.084 ± 0.1
Transcriptional activator Myb K171S, P10242 | 0.016 ± 0.071
Transcriptional activator Myb K171T, P10242 | -0.148 ± 0.2
Transcriptional activator Myb K171V, P10242 | -0.19 ± 0.088
